Values joined by “and” are separate entries in the source; they are usually repeats but may differ in a detail not shown here. Identical values can stand only once.
Assays:
[1] = test system: ADC-212 in pBCSK(−) E. coli DH10B; test: Broth microdilution AST, ADC-212; type: cell-based; conditions: Escherichia coli, E. coli DH10B ADC-212, MB076 fixed at 10 mg/L in combinations, FDC in iron-depleted broth
Description: (§1) Susceptibility testing to standard antibiotics was performed by broth microdilution or agar dilution using an Oxoid replicator according to 2021 Clinical and Laboratory Standards Institute (CLSI) guidelines. MICs for CAZ, CTX, FEP, and TOL were determined using cation-adjusted Mueller Hinton MH broth, and MICs for FDC were done in iron-depleted cation-adjusted MH broth according to CLSI methods. MB076, S02030, and VAB were used at a fixed concentration of 10 mg/L. All MICs were interpreted according to the 2021 CLSI guidelines.[43]
(§2) blaADC-7 pBCSK- was cloned and expressed in E. coli DH10B cells as previously described.[44] All other blaADC variants were synthesized by GenScript according to the blaADC-7 pBCSK- strategy, cloning into the XbaI/BamHI sites of the pBCSK- vector.

[2] = test system: ADC-7 in pBCSK(−) E. coli DH10B; test: Broth microdilution AST, ADC-7; type: cell-based; conditions: Escherichia coli, E. coli DH10B ADC-7, MB076 fixed at 10 mg/L in combinations, FDC in iron-depleted broth
Description: as §1, §2

[3] = test system: ADC-219 in pBCSK(−) E. coli DH10B; test: Broth microdilution AST, ADC-219; type: cell-based; conditions: Escherichia coli, E. coli DH10B ADC-219, MB076 fixed at 10 mg/L in combinations, FDC in iron-depleted broth
Description: as §1, §2

[4] = molecular target: ADC-33 (Acinetobacter baumannii, UniProt A7Y407); conditions: ADC-33; substrate
Description: Steady-state kinetic parameters were determined by combining pure enzyme with antibiotic substrates in 50 mM NaH2PO4, pH 7.4 at room temperature. Changes in absorbance were measured on a Cary 60 UV–Vis spectrophotometer (Agilent Technologies) and converted to velocity using the change in extinction coefficient specific to nitrocefin (ε482 = 17,400 M^–1·cm^–1), cephalothin (ε262 = 7660 M^–1·cm^–1), ceftazidime (ε260 = 8660 M^–1·cm^–1), cefotaxime (ε260 = 7500 M^–1·cm^–1), cefepime (ε260 = 750 M^–1·cm^–1), cefiderocol (ε259 = 9430 M^–1·cm^–1), and ceftolozane (ε254 = 6810 M^–1·cm^–1). Initial velocities were fit to the Michaelis–Menten equation yielding kcat and KM values. For ADC/substrate combinations in which the KM was too large to accurately determine both kcat and KM values, the initial velocities at kcat/KM values were calculated from linear fits of vo in low [S] ranges (<0.08 × KM).

[5] = test system: ADC-33 in pBCSK(−) E. coli DH10B; test: Broth microdilution AST, ADC-33; type: cell-based; conditions: Escherichia coli, E. coli DH10B ADC-33, MB076 fixed at 10 mg/L in combinations, FDC in iron-depleted broth
Description: as §1, §2

[6] = test system: ADC-30 in pBCSK(−) E. coli DH10B; test: Broth microdilution AST, ADC-30; type: cell-based; conditions: Escherichia coli, E. coli DH10B ADC-30, MB076 fixed at 10 mg/L in combinations, FDC in iron-depleted broth
Description: as §1, §2

[7] = test system: O=C(Cc1cccs1)N[C@@H]1C(=O)N2C(C(=O)O)=C(/C=C/c3ccc([N+](=O)[O-])cc3[N+](=O)[O-])CS[C@H]12; test: purified protein, by the assay type; conditions: 50 mM NaH2PO4 pH 7.4, room temperature
[8] = test system: CC(C)(O/N=C(\C(=O)N[C@@H]1C(=O)N2C(C(=O)[O-])=C(C[N+]3(CCNC(=O)c4ccc(O)c(O)c4Cl)CCCC3)CS[C@H]12)c1csc(N)n1)C(=O)O; test: purified protein, by the assay type; conditions: 50 mM NaH2PO4 pH 7.4, room temperature
[9] = test system: CC(C)(O/N=C(\C(=O)N[C@@H]1C(=O)N2C(C(=O)[O-])=C(C[n+]3ccccc3)CS[C@H]12)c1csc(N)n1)C(=O)O; test: purified protein, by the assay type; conditions: 50 mM NaH2PO4 pH 7.4, room temperature
[10] = test system: CO/N=C(\C(=O)N[C@@H]1C(=O)N2C(C(=O)[O-])=C(C[N+]3(C)CCCC3)CS[C@H]12)c1csc(N)n1; test: purified protein, by the assay type; conditions: 50 mM NaH2PO4 pH 7.4, room temperature
[11] = test system: CC(=O)OCC1=C(C(=O)O)N2C(=O)[C@@H](NC(=O)Cc3cccs3)[C@H]2SC1; test: purified protein, by the assay type; conditions: 50 mM NaH2PO4 pH 7.4, room temperature
[12] = test system: Cn1c(N)c(NC(=O)NCCN)c[n+]1CC1=C(C(=O)O)N2C(=O)[C@@H](NC(=O)/C(=N\OC(C)(C)C(=O)[O-])c3nsc(N)n3)[C@H]2SC1; test: purified protein, by the assay type; conditions: 50 mM NaH2PO4 pH 7.4, room temperature

`Cn1c(N)c(NC(=O)NCCN)c[n+]1CC1=C(C(=O)O)N2C(=O)[C@@H](NC(=O)/C(=N\OC(C)(C)C(=O)[O-])c3nsc(N)n3)[C@H]2SC1` [ceftolozane] was tested, and the MIC [1] was 256 µg/mL, the MIC [2] was 8 µg/mL and the MIC [3] was 128 µg/mL. The kcat [4] was 4.23 s^–1, the MIC [5] was 256 µg/mL and the MIC [6] was 8 µg/mL.

ADC-7 (Acinetobacter baumannii) was tested, and the Km ([7]; other: ADC-7, substrate) was 57.5 ± 4.6 µM, the kcat ([7]; other: ADC-7, substrate) was 720 ± 18.6 s⁻¹ and the kcat/Km ([7]; other: ADC-7, substrate) was 1.25e+07 ± 1.33e+06 M⁻¹ s⁻¹. For the same compound, the kcat/Km ([8]; other: ADC-7, substrate) was under 1000 M⁻¹ s⁻¹, the kcat/Km ([9]; other: ADC-7, substrate) was 2000 M⁻¹ s⁻¹ and the kcat/Km ([10]; other: ADC-7, substrate) was 6400 M⁻¹ s⁻¹. The Km ([11]; other: ADC-7, substrate) was 204.2 ± 11.2 µM, the kcat ([11]; other: ADC-7, substrate) was 659 ± 16.6 s⁻¹ and the kcat/Km ([11]; other: ADC-7, substrate) was 3.22e+06 ± 260000 M⁻¹ s⁻¹. For the same compound, the kcat/Km ([12]; other: ADC-7, substrate) was under 1000 M⁻¹ s⁻¹.

With ADC-30 (Acinetobacter baumannii) the Km ([7]; other: ADC-30, substrate) was 46.3 ± 3.7 µM, the kcat ([7]; other: ADC-30, substrate) was 538 ± 12.9 s⁻¹ and the kcat/Km ([7]; other: ADC-30, substrate) was 1.16e+07 ± 1.21e+06 M⁻¹ s⁻¹. For the same compound, the kcat/Km ([8]; other: ADC-30, substrate) was under 1000 M⁻¹ s⁻¹, the kcat/Km ([9]; other: ADC-30, substrate) was 3300 M⁻¹ s⁻¹ and the kcat/Km ([10]; other: ADC-30, substrate) was 4900 M⁻¹ s⁻¹. The Km ([11]; other: ADC-30, substrate) was 174.8 ± 8.8 µM, the kcat ([11]; other: ADC-30, substrate) was 763 ± 16.5 s⁻¹ and the kcat/Km ([11]; other: ADC-30, substrate) was 4.36e+06 ± 310000 M⁻¹ s⁻¹. For the same compound, the kcat/Km ([12]; other: ADC-30, substrate) was under 1000 M⁻¹ s⁻¹.

With ADC-33 (Acinetobacter baumannii) the Km ([7]; other: ADC-33, substrate) was 45.8 ± 6.07 µM, the kcat ([7]; other: ADC-33, substrate) was 707 ± 28.2 s⁻¹ and the kcat/Km ([7]; other: ADC-33, substrate) was 1.54e+07 ± 2.66e+06 M⁻¹ s⁻¹. The Km ([8]; other: ADC-33, substrate) was 107 µM and 107.2 ± 13.8 µM, the kcat ([8]; other: ADC-33, substrate) was 0.6 ± 0.0315 s⁻¹ and the kcat/Km ([8]; other: ADC-33, substrate) was 5600 ± 1000 M⁻¹ s⁻¹. For the same compound, the Km ([9]; other: ADC-33, substrate) was 59.3 ± 7.80 µM, the kcat ([9]; other: ADC-33, substrate) was 3.71 ± 0.088 s⁻¹ and the kcat/Km ([9]; other: ADC-33, substrate) was 62600 ± 9700 M⁻¹ s⁻¹. The kcat/Km ([10]; other: ADC-33, substrate) was 16900 M⁻¹ s⁻¹, the Km ([11]; other: ADC-33, substrate) was 95.3 ± 3.5 µM and the kcat ([11]; other: ADC-33, substrate) was 347 ± 4.5 s⁻¹. It also gave a kcat/Km ([11]; other: ADC-33, substrate) of 3.64e+06 ± 180000 M⁻¹ s⁻¹, a Km ([12]; other: ADC-33, substrate) of 219.3 ± 21.6 µM and a kcat ([12]; other: ADC-33, substrate) of 4.23 ± 0.18 s⁻¹. It also gave a kcat/Km ([12]; other: ADC-33, substrate) of 19300 ± 2700 M⁻¹ s⁻¹.

ADC-162 (Acinetobacter baumannii) showed a Km ([7]; other: ADC-162, substrate) of 88.1 ± 8.06 µM, a kcat ([7]; other: ADC-162, substrate) of 591 ± 20 s⁻¹ and a kcat/Km ([7]; other: ADC-162, substrate) of 6.71e+06 ± 840000 M⁻¹ s⁻¹. It also gave a kcat/Km ([8]; other: ADC-162, substrate) of under 1000 M⁻¹ s⁻¹, a kcat/Km ([9]; other: ADC-162, substrate) of 3400 M⁻¹ s⁻¹ and a kcat/Km ([10]; other: ADC-162, substrate) of 2800 M⁻¹ s⁻¹. For the same compound, the Km ([11]; other: ADC-162, substrate) was 382.0 ± 26.4 µM, the kcat ([11]; other: ADC-162, substrate) was 656 ± 22.8 s⁻¹ and the kcat/Km ([11]; other: ADC-162, substrate) was 1.72e+06 ± 180000 M⁻¹ s⁻¹. The kcat/Km ([12]; other: ADC-162, substrate) was under 1000 M⁻¹ s⁻¹.

— PMC10350917 (Journal of Medicinal Chemistry, 2023)
